Article PMC10317887, “Hypoglycaemia frequency and physiological response after double or triple doses of once-weekly insulin icodec vs once-daily insulin glargine U100 in type 2 diabetes: a randomised crossover trial” (Diabetologia, 2023)

Legend:
[1] = system: individuals with type 2 diabetes; assay: Vital signs during hypoglycaemia induction
Description: Hypoglycaemic response assessments were conducted at predefined PG levels during hypoglycaemia development and recovery (Fig. 1b). Hypoglycaemic symptoms score (HSS), hypoglycaemia awareness, counterregulatory hormones, vital signs and cognitive function tests were assessed at baseline (PG5.5 mmol/l), during hypoglycaemia development (PG3.9 mmol/l and PG3.0 mmol/l) and at PGnadir. In addition, counterregulatory hormones and vital signs were assessed during recovery from hypoglycaemia at PG3.0 mmol/l, PG3.9 mmol/l and PG5.5 mmol/l.
Vital signs (diastolic blood pressure, systolic blood pressure and pulse) were measured after ≥5 min of rest in a supine position.
(§1) Changes in HSS, vital signs and cognitive function tests from baseline (PG5.5 mmol/l) to PG3.0 mmol/l and to PGnadir were compared between insulin products at each of the two dose levels using the same approach as described for PGnadir, except that no logarithmic transformation was done and that the baseline value was included as a covariate. Least-squares means, treatment difference and 95% CI were derived.

[2] = system: individuals with type 2 diabetes; assay: Cognitive function: trail making B (TMB) test; settings: for Change in TMB at PG3.0 mmol/l, least-squares mean / Change in TMB at PGnadir, least-squares mean: change from baseline, subgroup
Description: (§2) Hypoglycaemic response assessments were conducted at predefined PG levels during hypoglycaemia development and recovery (Fig. 1b). Hypoglycaemic symptoms score (HSS), hypoglycaemia awareness, counterregulatory hormones, vital signs and cognitive function tests were assessed at baseline (PG5.5 mmol/l), during hypoglycaemia development (PG3.9 mmol/l and PG3.0 mmol/l) and at PGnadir.
(§3) Cognitive function was assessed using the trail making B (TMB) test, the digit symbol substitution test (DSST) and the four-choice reaction time (4CRT) test. In the TMB test from the Halstead Reitan Neuropsychological Battery [16, 17], the participant connects 25 circles distributed on a chart in the correct sequence as quickly as possible. The circles contain a number (1–13) or a letter (A–L), and the correct sequence consists of alternating numbers and letters (i.e. 1–A–2–B–3 etc). The test result is the time needed to complete the task correctly. In the DSST, which is a subtest of the Wechsler Adult Intelligence Scale - Revised [18], nine digits are represented by nine different symbols. During 90 s, the participant is requested to write down the appropriate symbol for as many numbers as possible in a given array. The test result is the number of correct responses. […] In 100 cycles, the participant responds by pressing the corresponding position on a keypad. The test result has two components: percentage of correct answers and the mean response time.
as §1

[3] = system: individuals with type 2 diabetes; assay: Cognitive function: digit symbol substitution test (DSST); settings: for Change in DSST at PG3.0 mmol/l, least-squares mean / Change in DSST at PGnadir, least-squares mean: change from baseline, subgroup
Description: as §2, §3, §1

[4] = system: individuals with type 2 diabetes; assay: Continuous glucose monitoring (CGM) after double and triple doses
Description: In addition to self-measured PG, which was performed throughout the trial, and PG measurements performed at the clinical site, continuous glucose monitoring (CGM) was conducted from the first dose of the first treatment period until the end of the second treatment period (Dexcom G6; Dexcom, San Diego, CA, USA). CGM data were visible to the participants and the investigators but were not used for titration of basal insulin dose or for reporting hypoglycaemia.
CGM data were summarised from the time of double or triple dose until the next insulin administration (excluding the period of hypoglycaemia induction experiments), thereby eliminating any confounding effect of other insulin.

[5] = system: individuals with type 2 diabetes; assay: Safety: adverse events and non-induced hypoglycaemic episodes during treatment periods
Excerpt: Safety assessments during the trial included adverse events (AEs), hypoglycaemic episodes (other than those induced), vital signs (other than those assessed during hypoglycaemia induction), electrocardiograms, physical examinations and clinical laboratory assessments (haematology, biochemistry and urinalysis).
AEs and hypoglycaemic episodes (other than those induced) during the treatment periods were summarised. The end of each treatment period was defined as 7 days after the last icodec dose and 2 days after the last glargine U100 dose. […] Hypoglycaemic episodes were classified as level 1 (PG <3.9 mmol/l and ≥3.0 mmol/l), level 2 (PG <3.0 mmol/l) and level 3 (severe cognitive impairment requiring assistance for recovery) [20].

[6] = system: individuals with type 2 diabetes; assay: Hypoglycaemic symptoms score (HSS, Edinburgh Hypoglycaemia Scale) during hypoglycaemia induction; settings: for Change in HSS at PG3.0 mmol/l, least-squares mean: change from baseline PG5.5 mmol/l; for Change in HSS at PG3.0 mmol/l, least-squares mean / Change in HSS at PGnadir, least-squares mean: subgroup; for Change in HSS at PGnadir, least-squares mean: change from baseline
Description: as §2
The validated Edinburgh Hypoglycaemia Scale was used to determine hypoglycaemic symptoms, which were classified into 11 different autonomic, neuroglycopenic and non-specific symptoms of hypoglycaemia [14, 15]. The participant scored each of the 11 symptoms on a seven-point scale (1=‘not at all’, while 7=‘a great deal’). The total score was derived as 11 multiplied by the mean score for all symptoms.
as §1

[7] = double dose, change from baseline, subgroup, n=20 icodec, 19 glargine U100
[8] = triple dose, change from baseline, subgroup, n=20 icodec, 28 glargine U100
[9] = triple dose, change from baseline, subgroup, n=20 icodec, 29 glargine U100
[10] = double dose, n=16 icodec, 15 glargine U100
[11] = double dose, n=18 icodec, 18 glargine U100
[12] = triple dose, n=20 icodec, 28 glargine U100
[13] = after double dose: first 2 weeks (icodec) / first 48 h (glargine U100), participants with clinically significant hypoglycaemia during induction
[14] = after triple dose: first week (icodec) / first 48 h (glargine U100), participants with clinically significant hypoglycaemia during induction
[15] = treatment periods, outside hypoglycaemia induction experiments

insulin icodec
Change in DBP at PGnadir, least-squares mean [1, 7]: -5.4 mmHg
Change in SBP at PGnadir, least-squares mean [1, 7]: -7.7 mmHg
Change in pulse at PGnadir, least-squares mean [1, 7]: 1.2 beats/min
Change in DBP at PG3.0 mmol/l, least-squares mean ([1]; double dose, change from baseline, supine, subgroup, n=17 icodec, 15 glargine U100): -6.1 mmHg
Change in DBP at PG3.0 mmol/l, treatment difference (95% CI) icodec vs glargine U100 ([1]; triple dose): 0.8 (-3.4, 5.0)
Change in DBP at PGnadir, treatment difference (95% CI) icodec vs glargine U100 ([1]; triple dose): 3.6 (-0.8, 8.0)
Change in SBP at PG3.0 mmol/l, treatment difference (95% CI) icodec vs glargine U100 ([1]; triple dose): 0.7 (-6.6, 8.0)
Change in SBP at PGnadir, treatment difference (95% CI) icodec vs glargine U100 ([1]; triple dose): 3.9 (-2.2, 10.0)
Change in pulse at PG3.0 mmol/l, treatment difference (95% CI) icodec vs glargine U100 ([1]; triple dose): 0.8 (-4.4, 5.9)
Change in pulse at PGnadir, treatment difference (95% CI) icodec vs glargine U100 ([1]; triple dose): 0.5 (-4.8, 5.7)
Change in DBP at PG3.0 mmol/l, least-squares mean [1, 8]: -2.4 mmHg
Change in SBP at PG3.0 mmol/l, least-squares mean [1, 8]: -0.9 mmHg
Change in pulse at PG3.0 mmol/l, least-squares mean [1, 8]: 3.1 beats/min
Change in DBP at PGnadir, least-squares mean [1, 9]: -1.1 mmHg
Change in SBP at PGnadir, least-squares mean [1, 9]: 1.8 mmHg
Change in pulse at PGnadir, least-squares mean [1, 9]: 2.8 beats/min
Change in TMB at PG3.0 mmol/l, treatment difference (95% CI) icodec vs glargine U100 ([2]; double dose): 0.4 (-0.3, 1.0)
Change in TMB at PGnadir, treatment difference (95% CI) icodec vs glargine U100 ([2]; double dose): 0.3 (-0.2, 0.9)
Change in TMB at PG3.0 mmol/l, least-squares mean [2, 10]: 0.3 s
Change in TMB at PGnadir, least-squares mean [2, 11]: 0.3 s
Change in TMB at PG3.0 mmol/l, treatment difference (95% CI) icodec vs glargine U100 ([2]; triple dose): -0.1 (-0.4, 0.2)
Change in TMB at PGnadir, treatment difference (95% CI) icodec vs glargine U100 ([2]; triple dose): -0.1 (-0.3, 0.1)
Change in TMB at PGnadir, least-squares mean ([2]; triple dose, n=19 icodec, 28 glargine U100): -0.0 s
Change in TMB at PG3.0 mmol/l, least-squares mean ([2]; triple dose, n=20 icodec, 26 glargine U100): -0.0 s
Change in DSST at PG3.0 mmol/l, treatment difference (95% CI) icodec vs glargine U100 ([3]; double dose): 1.2 (-3.1, 5.5)
Change in DSST at PGnadir, treatment difference (95% CI) icodec vs glargine U100 ([3]; double dose): 0.6 (-3.7, 4.9)
Change in DSST at PG3.0 mmol/l, least-squares mean [3, 10]: -5.4 number of correct responses
Change in DSST at PGnadir, least-squares mean [3, 11]: -6.7 number of correct responses
Change in DSST at PG3.0 mmol/l, treatment difference (95% CI) icodec vs glargine U100 ([3]; triple dose): 0.5 (-3.3, 4.3)
Change in DSST at PGnadir, treatment difference (95% CI) icodec vs glargine U100 ([3]; triple dose): -2.2 (-6.8, 2.5)
Change in DSST at PGnadir, least-squares mean ([3]; triple dose, n=19 icodec, 29 glargine U100): -9.1 number of correct responses
Change in DSST at PG3.0 mmol/l, least-squares mean [3, 12]: -5.5 number of correct responses
Percentage time spent with glucose <3.9 mmol/l (CGM), mean±SD ([4]; after double dose: first 2 weeks (icodec) / first 48 h (glargine U100), all participants): 0.99±2.12%
Percentage time spent with glucose <3.0 mmol/l (CGM), mean±SD ([4]; after double dose: first 2 weeks (icodec) / first 48 h (glargine U100), all participants, induction period excluded): 0.15±0.44%
Percentage time spent with glucose <3.0 mmol/l (CGM), mean±SD [4, 13]: 0.21±0.45%
Percentage time spent with glucose <3.9 mmol/l (CGM), mean±SD [4, 13]: 1.63±2.75%
Percentage time spent with glucose <3.9 mmol/l (CGM), mean±SD ([4]; after triple dose: first week (icodec) / first 48 h (glargine U100), all participants): 1.56±3.54%
Percentage time spent with glucose <3.0 mmol/l (CGM), mean±SD ([4]; after triple dose: first week (icodec) / first 48 h (glargine U100), all participants, induction period excluded): 0.29±1.24%
Percentage time spent with glucose <3.0 mmol/l (CGM), mean±SD [4, 14]: 0.56±1.70%
Percentage time spent with glucose <3.9 mmol/l (CGM), mean±SD [4, 14]: 2.67±4.71%
Number of level 2 hypoglycaemic episodes ([5]; from end of hypoglycaemia induction experiment until 1 week after triple dose): six episodes in five individuals
Number of level 2 hypoglycaemic episodes ([5]; from end of hypoglycaemia induction experiment until 2 weeks after double dose): four episodes in three individuals
Duration of level 2 hypoglycaemic episodes, mean±SD ([5]; over both doses, treatment periods, outside induction): 25.3 ± 8.5 min
AE rate ([5]; treatment periods): 10.9 AEs per participant-year of exposure
Rate of clinically significant hypoglycaemic episodes (level 2, PG <3.0 mmol/l) [5, 15]: 3.4 episodes per participant-year of exposure
Severe hypoglycaemic episodes (level 3) [5, 15]: no severe hypoglycaemic episodes
Number of AEs reported ([5]; treatment periods, exposure 4.8 participant-years icodec, 1.6 glargine U100): 52 AEs
Change in HSS at PG3.0 mmol/l, treatment difference (95% CI) icodec vs glargine U100 ([6]; double dose): 1.2 (-1.5, 4.0)
Change in HSS at PGnadir, treatment difference (95% CI) icodec vs glargine U100 ([6]; double dose): -0.3 (-4.0, 3.5)
Change in HSS at PG3.0 mmol/l, least-squares mean ([6]; double dose, n=17 icodec, 15 glargine U100): 1.8
Change in HSS at PGnadir, least-squares mean ([6]; double dose, n=20 icodec, 19 glargine U100): 6.0
Change in HSS at PGnadir, treatment difference (95% CI) icodec vs glargine U100 ([6]; triple dose): 0.5 (-2.7, 3.6)
Change in HSS at PG3.0 mmol/l, least-squares mean [6, 12]: 2.2
Change in HSS at PGnadir, least-squares mean ([6]; triple dose, n=20 icodec, 29 glargine U100): 5.4
Change in HSS at PG3.0 mmol/l, treatment difference (95% CI) icodec vs glargine U100 ([6]; triple dose, listed as Insulin icodec): -0.4 (-2.6, 1.8)
Change in HSS at PG3.0 mmol/l, treatment difference (95% CI) icodec vs glargine U100 ([6]; triple dose, listed as icodec): −0.4
